Data: patent US20160185837A1 (Medimmune Limited, priority 2013, published 2016)

T1: hGIPr (C3) (Homo sapiens, UniProt P48546)
T1 construct: expressed in transfected cells
T1 sequence (P48546 22-466): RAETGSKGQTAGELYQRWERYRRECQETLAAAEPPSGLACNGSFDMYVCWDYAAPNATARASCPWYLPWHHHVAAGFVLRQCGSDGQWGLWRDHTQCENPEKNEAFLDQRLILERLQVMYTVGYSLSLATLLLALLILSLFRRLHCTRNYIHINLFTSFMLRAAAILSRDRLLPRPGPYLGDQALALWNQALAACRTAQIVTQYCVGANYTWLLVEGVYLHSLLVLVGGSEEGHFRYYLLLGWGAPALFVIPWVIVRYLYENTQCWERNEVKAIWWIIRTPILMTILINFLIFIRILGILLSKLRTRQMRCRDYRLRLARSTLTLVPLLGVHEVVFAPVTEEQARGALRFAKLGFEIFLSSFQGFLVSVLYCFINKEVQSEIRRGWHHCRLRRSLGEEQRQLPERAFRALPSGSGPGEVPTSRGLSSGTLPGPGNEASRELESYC

B1: IP088: Fc fusion, IgG1-TM, SEQ ID NO:105; agonist peptide YSEGTFTSDYSKLLEEEAVRLFIEWLVKGP (SEQ ID NO:15) (protein)
chain: YSEGTFTSDYSKLLEEEAVRLFIEWLVKGPAAAGGSGSTASSGSGSATGGGGAATHTCPPCPAPEF
modifications: also: Fc fusion, IgG1-TM
B2: IP367 (protein)
chain: YSEGTFTSDYRILKERQAIDEFIAWLLKGGAAAGGSGSTASSGSGSATGGGGAATHTCPPC

Tests used:
[1] = PK by Activity
Method: Table printed on a drawing sheet, FIG. 3D-F
Circles: IV injection of 1 mg/kg, squares: subcutaneous injection of 1 mg/kg. Pharmacokinetic parameters Cmax, bioavailability (F %) and half-life T1/2 are compared in panel C.
Circles: IV injection of 1 mg/kg, squares: subcutaneous injection of 1 mg/kg. Pharmacokinetic parameters Cmax, bioavailability (F %) and half life T112 are compared in panel F.
First reader's note: Panel F of FIG. 3D-F; the pharmacokinetic parameters were derived from plasma levels measured by activity (sheet heading 'PK by Activity').

[2] = target: T1, hGIPr (C3); test: BSA-cAMP assay, second human GIPr cell line hGIPr (C3); assay type: cell-based; conditions: Batch 1, second hGIPr cell line, read-out: hGIPr (C3) cAMP activity EC50
Method: For human GIPr, two different lines were used, shown as “hGIPr” and “hGIPr (C3)” in Table 11. Peptide activation of these various receptors results in downstream production of cAMP second messenger that can be measured in a functional activity assay.
One basic cAMP assays was performed, differing in the medium used for the assay, the “BSA-cAMP assay”:
BSA-based assay medium: 0.1% bovine serum albumin (BSA) in
Hanks Balanced Salt Solution (GIBCO or Sigma), containing 0.5 mM IBMX (Sigma #17018);
In certain aspects, the assay can also be carried out in medium supplemented with serum albumin that corresponds to the receptor being tested, e.g., human serum albumin for testing cAMP activity at hGIPr or hGLP-1r, rat serum albumin for testing cAMP activity at rGIPr or rGLP-1r, and so on. […]
cAMP levels were measured using a commercially available cAMP dynamic 2 HTRF kit (Cisbio, Cat #62AM4PEJ), following the two step protocol as per manufacturer's recommendations. […] Plates were incubated at room temperature for one hour and then read on an Envision (Perkin Elmer) using excitation wavelength of 320 nm and emission wavelengths of 620 nm & 665 nm. Data was transformed to % Delta F as described in manufacturer's guidelines and then transformed to percent activation of maximal native agonist response and analysed by 4-parameter logistic fit to determine EC50 values. […]

Molecule | Cmax [1] [nM] | F (%) [1] [%] | t½ [1] [h] | EC50 [2] [nM]
B1 | 98 | 72 | 24 | –
B2 | – | – | – | 13
